# Marks after values point to notes of the source that are not given here.
# B1: SEQ ID NO: 1: mature amino acid sequence of a wild type GH25 lysozyme from Acremonium alcalophilum with N-terminal SPIRR (protein)
# chain: SPIRRRIPGFDISGWQPTTDFARAYANGDRFVYIKATEGTTFKSSAFSRQYTGATQNGFIRGAYHFAQPAASSGAAQARYFASNGGGWSKDGITLPGALDIEYNPNGATCYGLSQSAMVNWIEDFVTTYHGITSRWPVIYTTTDWWTQCTGNSNRFANRCPLWIARYASSVGTLPNGWGFYTFWQYNDKYPQGGDSNWFNGDASRLRALANGD
# modifications: Wild type sequence with N-terminal SPIRR
# What was measured:
# [1] = test system: Micrococcus lysodeikticus ATTC No. 4698; assay: Lysozyme activity turbidity assay (optical density drop); conditions: pH 4
# [2] = In vivo broiler trial 1, growth performance; parameters: species or system male broiler chickens (ROSS PM3)
# [3] = Grower (d 22-36), 25 mg/kg feed
# [4] = Grower (d 22-36), 50 mg/kg feed
# [5] = Grower (d 22-36), 100 mg/kg feed
# [6] = Grower (d 22-36), 200 mg/kg feed
# [7] = Starter (d 1-22), 25 mg/kg feed
# [8] = Starter (d 1-22), 50 mg/kg feed
# [9] = Starter (d 1-22), 100 mg/kg feed
# [10] = Starter (d 1-22), 200 mg/kg feed
# [11] = Whole period (d 1-36), 25 mg/kg feed
molecule,measurement,setting,value
B1,Lysozyme activity as measured by Optical Density Drop,[1],+ (pH 4)
same,Improvement of FCR compared to the control diet,[2]; 25 mg/kg,3.3%
same,Improvement of FCR compared to the control diet,[2]; 50 mg/kg,2.9%
same,Improvement of FCR compared to the control diet,[2]; 100 mg/kg,3.2%
same,FCR,[2]; [3],1.676^c
same,"FCR, Relative to C (%)",[2]; [3],96.7%
same,Feed intake,[2]; [3],3004^ab g/b
same,"Feed intake, Relative to C (%)",[2]; [3],98.5%
same,Weight gain,[2]; [3],1792 g/b
same,"Weight gain, Relative to C (%)",[2]; [3],101.9%
same,FCR,[2]; [4],1.683^bc
same,"FCR, Relative to C (%)",[2]; [4],97.1%
same,Feed intake,[2]; [4],2939^ab g/b
same,"Feed intake, Relative to C (%)",[2]; [4],96.4%
same,Weight gain,[2]; [4],1747 g/b
same,"Weight gain, Relative to C (%)",[2]; [4],99.3%
same,FCR,[2]; [5],1.662^c
same,"FCR, Relative to C (%)",[2]; [5],95.8%
same,Feed intake,[2]; [5],2870^b g/b
same,"Feed intake, Relative to C (%)",[2]; [5],94.1%
same,Weight gain,[2]; [5],1729 g/b
same,"Weight gain, Relative to C (%)",[2]; [5],98.2%
same,FCR,[2]; [6],1.742^a
same,"FCR, Relative to C (%)",[2]; [6],100.5%
same,Feed intake,[2]; [6],2934^ab g/b
same,"Feed intake, Relative to C (%)",[2]; [6],96.2%
same,Weight gain,[2]; [6],1685 g/b
same,"Weight gain, Relative to C (%)",[2]; [6],95.7%
same,FCR,[2]; [7],1.781^ab
same,"FCR, Relative to C (%)",[2]; [7],98%
same,Feed intake,[2]; [7],1985 g/b
same,"Feed intake, Relative to C (%)",[2]; [7],99.5%
same,Weight gain,[2]; [7],1115 g/b
same,"Weight gain, Relative to C (%)",[2]; [7],101.3%
same,FCR,[2]; [8],1.793^ab
same,"FCR, Relative to C (%)",[2]; [8],98.7%
same,Feed intake,[2]; [8],1977 g/b
same,"Feed intake, Relative to C (%)",[2]; [8],99.1%
same,Weight gain,[2]; [8],1102 g/b
same,"Weight gain, Relative to C (%)",[2]; [8],100.1%
same,FCR,[2]; [9],1.723^bc
same,"FCR, Relative to C (%)",[2]; [9],94.9%
same,Feed intake,[2]; [9],1941 g/b
same,"Feed intake, Relative to C (%)",[2]; [9],97.3%
same,Weight gain,[2]; [9],1127 g/b
same,"Weight gain, Relative to C (%)",[2]; [9],102.4%
same,FCR,[2]; [10],1.696^c
same,"FCR, Relative to C (%)",[2]; [10],93.4%
same,Feed intake,[2]; [10],1946 g/b
same,"Feed intake, Relative to C (%)",[2]; [10],97.6%
same,Weight gain,[2]; [10],1148 g/b
same,"Weight gain, Relative to C (%)",[2]; [10],104.2%
same,FCR,[2]; [11],1.716^bc
same,"FCR, Relative to C (%)",[2]; [11],97.3%

# From patent publication US10568344B2, “Methods of improving animal performance” (Novozymes A/S, priority 2015, dated 2020)
